Measured values published in US20200171068A1, “COMPOSITIONS COMPRISING APTAMERS AND NUCLEIC ACID PAYLOADS AND METHODS OF USING THE SAME” (Children's National Medical Center, priority 2017, published 2020).
Entries after “also recorded” stand apart in the source; their conditions may differ. [C3] = C3 (propyl) spacer linking the 3' end of the DNA aptamer to the passenger RNA

Columns and labels:
[1] = test system: hematopoiesis; test: Carboplatin-induced myelosuppression in mice; format: in vivo, mouse
Procedure: (§1) For xenograft models, the NSG mice and BALB/c mice were subcutaneously injected with 2×10^6 viable MDA-MB-231 cells and TUBO cells in their right hind limbs, respectively. After the tumor grew to 1 cm in diameter, mice were randomly divided into the groups for each treatment. For no treatment control, 100 μl saline with 1% mouse serum was intravenously injected through tail vein. For treatment groups, 670 pmol/20 g chimeras and/or 5(0 mg/kg 5-fluorouracil (5-FU), or 120 mg/kg carboplatin were also intravenously injected. Tumor sizes were measured in two dimensions every 3 days. Tumor volume (V) was calculated using the following formula: V=(½) S^2×L (S. the shortest dimension; L, the longest dimension). Animals were euthanized when the tumor size was over 2 cm diameters, tumor ulcerated, or became necrotic. For chimera treatment in normal mice, C57BL/6 mice were treated with miR-26a chimera (670 pmol/20 g) everyday for 3 days by intravenous injection. At day 2, 150 mg/kg 5-FU and/or 120 mg/kg carboplatin was injected together with the chimera. Peripheral bloods were collected at day 5 and day 10 after the 5-FU treatment. Complete blood counts were measured by Hemavet 950FS (Drew Scientific, Miami Lakes, Fla., USA).

[2] = test system: MDA-MB-231 cells; test: miR-26a delivery into MDA-MB-231 cells, qPCR; format: cell-based, human; details: two days after incubation, compared to control chimera
Excerpt: Total RNAs from cell lines and mouse tissues were extracted by RNeasy Plus Mini kit (Qiagen, Valencia, Calif., USA). miR-26a levels were quantified by Taqman microRNA assay (assay ID; 000405) that covered both has-miR-26a-5p and mmu-miR-26a-5p (Thermo Fisher Scientific) according to manufacturer's protocol. U6 snRNA (Taqman microRNA assay, assay ID; 001973) was used as endogenous control. For qPCR of other genes, cDNAs were synthesized from the purified total RNA with qScript cDNA supermix (Quanta Bio, Gaithersburg, Md., USA). Real-time PCR was performed with Power SYBR Green PCR master mix (Thermo Fisher Scientific) on 7500 Real Time PCR system (Thermo Fisher Scientific). Sequence primers for mouse Bak were […] (forward) (SEQ ID NO: 11) and […] (reverse) (SEQ ID NO:12). For mouse Ezh2, […] (forward) (SEQ ID NO:13) and […] (reverse) (SEQ ID NO:14). For mouse Actb, […] (forward) (SEQ ID NO:15) and […] (reverse) (SEQ ID NO:16) were used as endogenous control.

[3] = test system: MDA-MB-231 cells; test: Growth and apoptosis of MDA-MB-231 cells cultured with chimera; format: cell-based, human; details: 3 days of culture
Excerpt: FIG. 1A-FIG. 1H show identification and validation of KIT-targeting miR-26a chimera that inhibits human breast cancer growth in vitro and in vivo. FIG. 1A is a graph showing the overall survival of basal-like breast cancer patients with higher or lower expression of miR-26a-2 based on the expression scores comparing to the mean value in TCGA cohort. FIG. 1B is a graph showing the binding of anti-KIT antibody and KIT DNA aptamer to MDA-MB-231 cell line. Other cell targeting aptamer is specific for Ramos cells. FIG. 1C depicts the secondary structure of KIT aptamer-miR-26a chimera. KIT DNA aptamer was linked with C3 linker to RNA passenger sequence that was complimentary binds to miR-26a mimic sequence. Another RNA passenger sequence binding to the 3′ of miR-26 mimic was conjugated with TEG-cholesterol. FIG. 1D is a graph showing specific miR-26a delivery by the miR-26a chimera. […] After 3 days of culture with miR-26a chimera or control chimera, MDA-MB-231 cell numbers (left) were counted using hemocytometer and Annexin V positive cells (%) (right) was determined by flow cytometry. […]
For aptamer binding assay, streptavidin-APC (Cat #554067) […] Bioscience, San Jose, Calif., USA) was used for detecting the biotin-conjugated aptamers by flow cytometry. […] Flow cytometry analysis was performed on FACS Canto II (BD Bioscience) and the data were analyzed with FlowJo (FLOWJO, Ashland, Oreg., USA). […]

[4] = test system: EZH2 protein; test: EZH2 immunoblot in chimera-treated MDA-MB-231 cells; format: cell-based, human; details: 167 nM chimeras for 2 days
Procedure: The cell lysate from MDA-MB-231 cells treated with 167 nM chimeras for 2 days were fractionated by SDS-PAGE and then transferred to PVDF membrane (EMD Millipore, Billerica, Mass., USA). Following blocking with 5% FBS in tris-buffered saline, the membrane was incubated with primary antibody against EZH2 (D2C2) and Histone H3 (Cat #9715) (Cell Signaling Technologies, Danvers, Mass., USA) overnight at 4° C. and then incubated with horseradish peroxidase-conjugated anti-mouse and rabbit IgGs (Thermo Fisher Scientific) for 1 hr. respectively. The antigen-antibody immunoreactivity was detected in ChemiDoc Touch Imaging System (Bio-Rad Hercules, Calif., USA) using SuperSignal West Pico Chemiluminescent Substrate (Thermo Fisher Scientific).

[5] = test system: MDA-MB-231 xenograft tumors; test: MDA-MB-231 xenograft in NSG mice; format: in vivo, mouse
Excerpt: Xenograft model were generated 8-weeks old female immune-deficient NOD-scid IL2Rgamma^null (NSG™, Jackson Laboratories, Bar Harbar, Me., USA) using human breast cancer cell line. Syngeneic TUBO tumors were established in 8-weeks old female BALB/c mice (from Charles River Animal Facility, Frederick, Md., USA). These tumor-bearing mice were randomly assigned to each treatment group. Eight-week old male C57BL/6 mice and C57BL/6 ly5.2 mice (from Charles River Animal Facility, Frederick, Md., USA) were used for bone marrow transplantation assay. The mouse groups assigned for each treatment were not blinded. No statistical methods were used to pre-determined sample size for the analysis of mouse experiments. All the mice were maintained in the Research Animal Facility at Children's National Institute, Children's National Medical Center. The committee on the Use and Care of Animal at Children's National Institute approved all procedures involving experimental animals.
as §1

Molecule | red blood cells after carboplatin ([1]; day 10) | hematopoiesis: WBC and platelet counts after carboplatin ([1]; single high dose of carboplatin, day 5, compared with vehicle) | miR-26a expression in the MDA-MB-231 cells [2] | Annexin V positive cells (apoptosis) of MDA-MB-231 cells ([3]; flow cytometry) | MDA-MB-231 cell numbers (growth) ([3]; hemocytometer) | EZH2 protein expression [4] | tumor growth (tumor volume) ([5]; 5 or 10 daily intravenous injections, 670 pmol/20 g) | survival ([5]; 5 or 10 daily intravenous injections, 670 pmol/20 g, log-rank test vs control chimera) | miR-26a in KIT+ tumor cells ([5]; NSG mice, MDA-MB-231 tumor, 3 days after intravenous injection 670 pmol/20 g, qPCR) | miR-26a in KIT tumor cells (KIT-negative population) ([5]; NSG mice, MDA-MB-231 tumor, 3 days after single injection, qPCR)
N.N.O=C([O-])C1(C(=O)[O-])CCC1.[Pt+2] [carboplatin, reference compound] | reduction of red blood cells was also observed | significant defects in hematopoiesis; also recorded: significantly reduced WBC and platelet counts |  |  |  |  |  |  |  | 
KIT-targeting miR-26a chimera: anti-human KIT DNA aptamer-C3-passenger RNA, passenger RNA-TEG-cholesterol and miR-26a-5p guide strand annealed (SEQ ID NO:4/5, 8, 9) (nucleic acid, chain 1: DNA, 3' [C3], backbone not given here; chain 2: chemistry not given here; chain 3: chemistry not given here; guide: chemistry not given here; DNA aptamer joined by C3 spacer to passenger RNA, annealed three-part chimera) chain 1: GAGGCATACCAGCTTATTCAAGGGGCCGGGGCAAGGGGGGGGTACCGTGGTAGGACATAGTAAGTGCAATCTGCGAA chain 2: CCUAUUCUGG chain 3: GUUACUUGCACG guide: UUCAAGUAAUCCAGGAUAGGCU |  |  | significant increase; also recorded: successfully delivered miR-26a | induced apoptosis; also recorded: induction of apoptosis | suppressed the growth; also recorded: inhibited cell growth | significant suppression; also recorded: significantly suppressed | significantly suppressed the tumor growth | extended their survival | Significant increase; also recorded: significant elevation | No increase
